The values that follow are results of earlier work, collected in PMC7035337.

The target of this series is vimentin (Homo sapiens) (UniProt P08670).
Chain of vimentin (Homo sapiens) (P08670 2-466): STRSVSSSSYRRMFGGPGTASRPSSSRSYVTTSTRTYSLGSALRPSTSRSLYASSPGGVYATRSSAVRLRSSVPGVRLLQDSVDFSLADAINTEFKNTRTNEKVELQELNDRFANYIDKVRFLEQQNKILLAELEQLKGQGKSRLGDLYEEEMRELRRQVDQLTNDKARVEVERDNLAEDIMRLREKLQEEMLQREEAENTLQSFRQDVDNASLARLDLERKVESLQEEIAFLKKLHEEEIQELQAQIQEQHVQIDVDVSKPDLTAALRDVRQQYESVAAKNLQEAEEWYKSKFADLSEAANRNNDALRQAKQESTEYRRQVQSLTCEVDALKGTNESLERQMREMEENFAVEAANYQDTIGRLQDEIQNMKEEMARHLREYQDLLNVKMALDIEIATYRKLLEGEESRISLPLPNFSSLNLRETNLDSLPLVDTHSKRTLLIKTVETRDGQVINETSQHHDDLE

Chain of envoplakin PRD (Q92817 1822-2014): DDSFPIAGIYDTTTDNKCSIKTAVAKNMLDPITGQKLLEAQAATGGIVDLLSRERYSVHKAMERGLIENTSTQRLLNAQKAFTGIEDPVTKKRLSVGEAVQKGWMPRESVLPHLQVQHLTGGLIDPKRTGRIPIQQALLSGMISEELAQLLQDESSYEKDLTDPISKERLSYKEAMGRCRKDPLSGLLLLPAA

As a reminder, the Kd is a measure of binding affinity in units of concentration. On to envoplakin PRD (from UniProt Q92817), for which the Kd was 19.1 µM.
